Legend:
[1] = at best, in about 40% of patients (Dworkin, 2002); cited from earlier work
Nav 1.7 peptide B11.7 = biological target: T1, Nav 1.7 peptide B11.7 (Homo sapiens, UniProt Q15858); experiment: Peptide binding ELISA, cyclic Nav 1.7 peptide B11.7; conditions: biotinylated cyclic peptide on streptavidin plate
T1 construct: host or cells: synthetic peptide captured on streptavidin plates
Protocol: (§1) Nunc 96 well plates were coated overnight at 4° C. in 5 ug/ml Streptavidin (Jackson 016-000-114) 100 ul/well in carbonate coating buffer. Plates were washed four times in PBS/tween and 200 ul/well of block (1% BSA in PBS) was added for 1 hour at RT. Plates were washed four times in PBS/tween and 100 ul/well of biotinylated peptide at 5 ug/ml was added for 1 hour at RT. Plates were washed four times in PBS/tween and 100 ul/well of antibody added (starting at 10 ug/ml diluting in block in half logs down the plate) for 1 hour at RT. Plates were washed four times in PBS/tween and […] goat anti rabbit Fc HRP (Jackson 111-036-046) added for 1 hour at RT. Plates were washed four times in PBS/tween and 100 ul/well TMB (3,3′,5,5′ Tetramethylbenzidine) solution added. 50 ul/well of NaF was added to stop reaction and absorbance read at 630 nm.

[2] = tested on: cultured rat dorsal root ganglion (DRG) neurons; experiment: Dorsal root ganglion in vitro current clamp electrophysiology; format: cell-based; conditions: 25 μg/ml; for number of evoked action potentials: compared with vehicle or control antibody, administration at time=2 minutes
Protocol: Dorsal Root Ganglia were isolated from 1-2 wild-type rat pups, aged between postnatal day 1 and 3. Ganglia were washed in PBS after dissection and immediately placed into a DMEM (Lonza, #BE12-604F) solution containing 2 mg/ml collagenase (Sigma-Aldrich, #C2674) and incubated at 37° C. for approximately 45 minutes for enzymatic digestion. Collagenase solution was removed and replaced with DMEM supplemented with 10% Fetal Bovine Serum (Lonza, #DE14802F), 0.5 mM L-Glutamine (Lonza, #BE17-605E), 1% Penicillin/Streptomycin (Lonza, #BE17-603E) and 20 ng/ml nerve growth factor (NGF, Invitrogen). Ganglia were then mechanically triturated, centrifuged at 1000 g for 5 minutes, and resuspended in the same culture medium. Dissociated cells were counted and diluted to a suspension of 100,000-120,000 cells/ml on glass coverslips precoated with 50 μg/ml poly-D-lysine (Sigma) and 30 μg/ml laminin (Invitrogen) and incubated at 37° C., 5% CO2 until ready for use.
Dissociated DRG were taken for use no more than two days in vitro (DIV) following preparation. Cells were visualized on an Olympus BX50WI upright microscope with an Ikegami ICD-42B CCD camera. […] All recordings were acquired using pClamp 10 software (Molecular Devices) and subsequently analyzed in Clampfit 10 (Molecular Devices). […] The liquid junction potential was calculated to be 14.2 mV, all reported voltages have been corrected to compensate.
After formation of a tight seal (>1 GΩ) by release of positive pressure and manual suction in voltage clamp mode, capacitative currents were compensated and the command voltage was set to −70 mV. […] Whole cell parameters were recorded after dialysis. […] The amplifier was switched to current clamp mode and the resting membrane potential was recorded. […]
Cells were subsequently treated either with control or antibody solutions by fast bath perfusion directly on to the recorded cell for 90 seconds to sufficiently fill the recording chamber, at which point both perfusion and aspiration were halted. […]

rat Nav1.7 channels = biological target: T2, rat Nav1.7 channels (Rattus norvegicus, UniProt O08562); experiment: Automated Patch Clamp analysis of recombinant rat Nav1.7 channels expressed in HEK cells; format: cell-based; conditions: recombinant rat Nav1.7 in HEK cells
T2 construct: expressed in transfected cells; host or cells: HEK cells
T2 sequence (O08562 whole entry): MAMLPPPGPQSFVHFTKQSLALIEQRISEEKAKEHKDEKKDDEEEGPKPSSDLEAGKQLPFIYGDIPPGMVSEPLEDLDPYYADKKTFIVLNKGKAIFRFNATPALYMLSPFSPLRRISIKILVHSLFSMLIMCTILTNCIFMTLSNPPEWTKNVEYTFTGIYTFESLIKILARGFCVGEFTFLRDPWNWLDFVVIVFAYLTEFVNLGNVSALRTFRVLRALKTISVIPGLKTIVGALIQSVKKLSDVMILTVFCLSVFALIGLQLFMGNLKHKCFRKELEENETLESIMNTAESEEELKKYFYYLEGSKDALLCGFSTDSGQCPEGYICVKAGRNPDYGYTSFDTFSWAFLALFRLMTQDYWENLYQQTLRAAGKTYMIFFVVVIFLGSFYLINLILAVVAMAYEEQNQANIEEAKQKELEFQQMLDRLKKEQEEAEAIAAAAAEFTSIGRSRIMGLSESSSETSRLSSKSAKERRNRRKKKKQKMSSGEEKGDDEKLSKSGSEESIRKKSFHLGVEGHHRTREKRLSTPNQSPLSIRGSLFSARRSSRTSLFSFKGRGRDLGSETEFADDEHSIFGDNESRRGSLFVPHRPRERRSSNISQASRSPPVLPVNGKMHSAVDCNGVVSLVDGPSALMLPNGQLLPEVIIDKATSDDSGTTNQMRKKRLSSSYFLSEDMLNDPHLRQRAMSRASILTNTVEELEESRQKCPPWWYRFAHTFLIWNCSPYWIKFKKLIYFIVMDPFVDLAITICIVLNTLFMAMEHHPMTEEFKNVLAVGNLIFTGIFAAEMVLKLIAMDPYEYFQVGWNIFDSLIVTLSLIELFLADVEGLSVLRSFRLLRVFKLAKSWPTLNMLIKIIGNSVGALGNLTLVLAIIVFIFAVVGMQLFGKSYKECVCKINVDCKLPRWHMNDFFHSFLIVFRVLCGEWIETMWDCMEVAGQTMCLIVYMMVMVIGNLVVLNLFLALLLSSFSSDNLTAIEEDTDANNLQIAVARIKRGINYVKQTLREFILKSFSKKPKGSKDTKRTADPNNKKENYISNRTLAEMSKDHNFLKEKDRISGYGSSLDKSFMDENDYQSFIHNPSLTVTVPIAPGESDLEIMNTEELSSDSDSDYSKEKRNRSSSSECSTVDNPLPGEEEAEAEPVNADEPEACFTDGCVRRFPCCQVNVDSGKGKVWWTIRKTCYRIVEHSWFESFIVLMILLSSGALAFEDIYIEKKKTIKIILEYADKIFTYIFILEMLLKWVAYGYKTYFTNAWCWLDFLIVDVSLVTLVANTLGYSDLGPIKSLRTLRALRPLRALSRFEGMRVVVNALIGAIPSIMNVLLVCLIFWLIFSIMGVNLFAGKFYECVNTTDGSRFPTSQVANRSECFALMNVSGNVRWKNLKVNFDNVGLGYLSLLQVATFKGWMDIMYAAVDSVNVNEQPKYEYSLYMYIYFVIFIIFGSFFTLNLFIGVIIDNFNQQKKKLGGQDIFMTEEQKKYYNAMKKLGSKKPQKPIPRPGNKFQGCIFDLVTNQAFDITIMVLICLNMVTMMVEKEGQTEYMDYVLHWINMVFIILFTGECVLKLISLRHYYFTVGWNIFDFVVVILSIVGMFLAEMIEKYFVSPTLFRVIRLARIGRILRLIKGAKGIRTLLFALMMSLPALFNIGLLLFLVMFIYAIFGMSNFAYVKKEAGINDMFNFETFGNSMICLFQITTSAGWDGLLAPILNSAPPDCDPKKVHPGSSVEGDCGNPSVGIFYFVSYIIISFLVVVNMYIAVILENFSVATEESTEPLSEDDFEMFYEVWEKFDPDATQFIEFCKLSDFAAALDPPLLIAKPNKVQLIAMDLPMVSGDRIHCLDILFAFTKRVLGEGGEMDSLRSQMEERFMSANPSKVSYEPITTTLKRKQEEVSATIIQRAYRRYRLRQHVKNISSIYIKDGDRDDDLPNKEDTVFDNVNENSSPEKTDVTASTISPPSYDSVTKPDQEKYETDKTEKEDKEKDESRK
Text: Automated Patch Clamp analysis of recombinant rat Nav1.7 channels expressed in HEK cells. […] Data points represent the normalized peak current amplitudes after application of a repeated voltage step protocol (end point) in the presence of antibody.

[3] = biological target: T3, Human domain B loop E1 peptide B11 (Nav 1.7) (Homo sapiens, UniProt Q15858); experiment: Peptide binding ELISA, human B11 peptide
T3 construct: host or cells: synthetic peptide
Protocol: as §1

[4] = biological target: T4, Mouse domain B loop E1 peptide B11 (Nav 1.7) (Mus musculus, UniProt Q62205); experiment: Peptide binding ELISA, mouse B11 peptide
T4 construct: host or cells: synthetic peptide
Protocol: as §1

human Nav1.7 channel = biological target: T5, human Nav1.7 channel (Homo sapiens, UniProt Q15858); experiment: PatchXpress h Nav1.7 assay (automated Patch Clamp, HEK cells); format: cell-based; conditions: for dose dependence of inhibition of human Nav1.7 currents: recombinant human Nav1.7 in HEK cells, repeated voltage step protocol, end point
T5 construct: host or cells: HEK293
T5 sequence (Q15858 whole entry): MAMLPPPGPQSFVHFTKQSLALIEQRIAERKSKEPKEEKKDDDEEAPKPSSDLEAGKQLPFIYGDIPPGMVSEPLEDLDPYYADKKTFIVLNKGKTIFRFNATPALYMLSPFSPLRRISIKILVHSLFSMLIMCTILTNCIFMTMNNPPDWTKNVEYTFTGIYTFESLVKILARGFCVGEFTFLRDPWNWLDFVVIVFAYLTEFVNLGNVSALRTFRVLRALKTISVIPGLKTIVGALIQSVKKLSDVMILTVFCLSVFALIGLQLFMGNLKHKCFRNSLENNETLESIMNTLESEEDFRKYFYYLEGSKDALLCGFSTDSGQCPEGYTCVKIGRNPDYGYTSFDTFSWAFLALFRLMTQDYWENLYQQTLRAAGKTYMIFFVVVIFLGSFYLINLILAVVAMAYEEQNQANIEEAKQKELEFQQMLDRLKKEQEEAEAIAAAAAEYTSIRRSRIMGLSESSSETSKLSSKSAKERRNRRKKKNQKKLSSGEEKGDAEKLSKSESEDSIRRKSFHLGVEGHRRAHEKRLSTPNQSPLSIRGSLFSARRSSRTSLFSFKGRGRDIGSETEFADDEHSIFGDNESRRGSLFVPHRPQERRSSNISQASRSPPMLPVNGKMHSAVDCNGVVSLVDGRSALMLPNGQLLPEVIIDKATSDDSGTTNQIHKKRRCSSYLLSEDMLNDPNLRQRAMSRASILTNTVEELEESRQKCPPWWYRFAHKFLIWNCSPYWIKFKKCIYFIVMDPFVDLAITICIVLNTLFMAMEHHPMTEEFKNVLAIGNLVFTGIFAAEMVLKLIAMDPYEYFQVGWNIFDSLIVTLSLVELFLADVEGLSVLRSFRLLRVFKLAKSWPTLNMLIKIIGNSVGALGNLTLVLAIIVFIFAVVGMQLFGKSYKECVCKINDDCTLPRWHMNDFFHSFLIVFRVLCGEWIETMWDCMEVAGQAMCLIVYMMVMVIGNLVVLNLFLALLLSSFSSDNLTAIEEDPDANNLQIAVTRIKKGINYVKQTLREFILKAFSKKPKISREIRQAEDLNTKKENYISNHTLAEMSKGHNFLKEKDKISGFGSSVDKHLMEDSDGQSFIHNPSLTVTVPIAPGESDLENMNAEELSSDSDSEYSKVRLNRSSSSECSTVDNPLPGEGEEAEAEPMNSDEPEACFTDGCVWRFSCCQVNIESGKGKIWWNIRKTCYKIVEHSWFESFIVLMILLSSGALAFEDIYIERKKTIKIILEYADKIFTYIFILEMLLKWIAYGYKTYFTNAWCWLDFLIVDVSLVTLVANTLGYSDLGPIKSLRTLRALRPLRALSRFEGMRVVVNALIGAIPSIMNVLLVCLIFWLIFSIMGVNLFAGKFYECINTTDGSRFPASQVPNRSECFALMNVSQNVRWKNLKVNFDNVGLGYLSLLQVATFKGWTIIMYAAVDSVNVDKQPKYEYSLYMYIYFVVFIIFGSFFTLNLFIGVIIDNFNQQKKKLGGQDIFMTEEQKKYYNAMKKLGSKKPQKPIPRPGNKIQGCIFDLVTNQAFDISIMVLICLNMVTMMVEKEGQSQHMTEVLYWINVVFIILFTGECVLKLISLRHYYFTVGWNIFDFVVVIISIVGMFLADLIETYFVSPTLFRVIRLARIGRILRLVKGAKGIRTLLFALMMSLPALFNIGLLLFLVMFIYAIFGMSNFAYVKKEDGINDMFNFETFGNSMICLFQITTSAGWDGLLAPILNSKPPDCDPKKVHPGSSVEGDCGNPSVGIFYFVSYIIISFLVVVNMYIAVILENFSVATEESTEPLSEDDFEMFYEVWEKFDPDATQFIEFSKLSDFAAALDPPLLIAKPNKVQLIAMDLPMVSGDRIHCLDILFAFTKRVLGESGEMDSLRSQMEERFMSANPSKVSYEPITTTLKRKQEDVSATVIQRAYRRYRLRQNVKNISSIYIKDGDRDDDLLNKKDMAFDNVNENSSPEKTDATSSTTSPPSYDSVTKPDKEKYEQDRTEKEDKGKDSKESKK
Protocol: Extracellular solution contained (in mM): 130 NaCl, 4 KCl, 1.5 CaCl2, 1 MgCl2, 30 glucose, 10 HEPES (pH 7.4 with Tris-Base, and 300 to 305 mOsmolar). Intracellular solution contained (in mM): 5 NaCl, 115 CsF, 20 CsCl, […], 10 EGTA free acid (pH 7.2 with CsOH, and 290 to 295 mOsmolar) and was either made fresh or kept frozen. Extracellular and intracellular solutions were filtered prior to use. Antibodies were directly diluted in extracellular solution and were freshly (no more than 15 min) prepared before transfer to a 96-well polypropylene compound plate (Sarsted, #83.1835.500). For the experiments using selective peptide, antibodies and peptides, at equal concentrations, were preincubated at least 30-min at 4° C. prior Patch Clamp experiments.
HEK293 cells stably expressing the human Nav1.7 channel (type IX voltage-gated sodium channel alpha subunit) were purchased from Upstate (Upstate, Millipore, cat.#CYL3011). Cells were cultured in T-75 (BD BioCoat™ Collagen I Cellware, Becton Dickinson Labware, Bedford, Mass., #356485) flasks coated with collagen type I using standard culture medium DMEM-F12 with-Glutamine (Invitrogen, #11320) containing 10% FBS (Lonza, #DE14-802F), 1% penicillin+streptomycin (Lonza, DE17-603E), 1% non essential amino acids (Lonza, BE13-114E) and 400 μg/ml G418 (GIBCO, #10131-027). Cells were plated at a density of 15,000 cells/cm2 or 8,000 cells/cm2 density for 2 or 3 days respectively before being used on PatchXpress® 7000A (Axon instrument, new part of MDS Analytical Technologies). Cells confluence never exceeded 90%. The day of the experiment, cells were harvested using Accumax (Sigma, A7089). Briefly, cells were washed twice in PBS (Lonza, #BE12-516F) without calcium and magnesium, and a 1:4 dilution of Accumax solution was added and incubated for 1.5 to 2-min at 37° C. DMEM-F12 with 15 mMHEPES and L-glutamine (Lonza, #BE12-719F) containing 10% FBS (recovery media) was added to quench Accumax digestion. The cells were subsequently centrifuged at 1,000 rpm for 5-min in 50 ml falcon tube and pellets are resuspended in 10 ml of recovery media. Cells are counted (CoulterZ2) and suspended at ˜0.1 million cells/ml and transferred to a 15 ml screw-cap tube for minimum 90 minutes at room temperature. Cells were then centrifuged for 60-s at 1,000 rpm. The pellet was gently resuspended in 1,000 μl extracellular solution and centrifuged a second time for 30-s at 1,000 rpm. Pellet was resuspended in 150 μL extracellular solution and immediately tested on the PatchXpress®. […]
After 10-s, the pressure was switched from +4 to −30 mmHg to attract suspended cells to each of the 16 holes (electrodes). […] The cell was allowed to dialyze for 5 min, during which the access resistance was monitored. […]

Row | Molecule | pain reduction [1] | ELISA binding to Nav 1.7 peptide (B11.7) (Nav 1.7 peptide B11.7) | number of evoked action potentials [2] | dose dependence of inhibition of rat Nav1.7 currents (rat Nav1.7 channels; repeated voltage step protocol, end point) | ELISA binding to Human domain B loop E1 peptide B11 [3] | ELISA binding to Mouse domain B loop E1 peptide B11 [4] | human Nav1.7 current when stimulated only at the end of the protocol (human Nav1.7 channel; 25 μg/ml, stimulation only at end, after incubation of antibody) | human Nav1.7 currents under repeated activation (human Nav1.7 channel; 25 μg/ml, voltage step protocol at 0.1 Hz for ~20 minutes) | dose dependence of inhibition of human Nav1.7 currents (human Nav1.7 channel) | electrically induced spike frequency of DRG neurons ([2]; normalized to frequency at time 0) | inhibition of rat Nav1.7 currents (rat Nav1.7 channels; 25 μg/ml)
1 | NCC1(CC(=O)O)CCCCC1 [gabapentin] | ≤ 50% | – | – | – | – | – | – | – | – | – | –
2 | CA167_00983: rabbit anti-Nav1.7 monoclonal antibody, B11-specific; VH SEQ ID NO:148, VL SEQ ID NO:147 (antibody, V domains shown, derived from rabbit) VH: QSVEESGGRLVTPGTPLTLTCTVSGFSLSNYAMSWVRQAPGKGLEWIGIIGKSGSTAYASWAKGRFTISRTSTTVDLEITSPTTEDTATYFCVRFVLLWGPGTLVTVS VL: AQVLTQTASPVSAAVGGTVTINCQSSQSVYKNNDLAWYQQKPGQPPKLLIYYASTLASGVSSRFKGSGSGTEFTLTISDAQCDDAATYYCLGSYDCSSADCNAFGGGTKVVVK | – | specific binding | significantly reduced | dose-dependent inhibition | binding | binding | does not produce an inhibition of the Nav1.7 current | reduced in the presence of the antibody (25 μg/ml) but only when repeated activation of the channel at 0.1 Hz is maintained | dose-dependent inhibition | – | –
3 | CA167_01080: rabbit anti-Nav1.7 monoclonal antibody, B11-specific; VH SEQ ID NO:176, VL SEQ ID NO:175 (antibody, V domains shown, derived from rabbit) VH: QSLEESGGRLVTPETPLTLTCTASGIDLSKWPMTWVRQAPGKGLEWIGIIGRSGSTNYASWAKGRFTISKTSTTVDLKMTSPTTEDTATYFCARGGSYYDLWGQGTLVTVS VL: AQVLTQTASPVSAAVGNTVTITCQSSQSVWKNNDLSWYQQKLGQPPKLLIYYASTLASGVSSRFKASGSGTQFTLTISDVQCDDAGTYYCVGSYDCSSADCNAFGGGTKVVVK | – | specific binding | – | – | binding | binding | – | – | dose-dependent inhibition | reduces | ~26%
4 | CA167_00932: rabbit anti-Nav1.7 monoclonal antibody, A32-specific; VH SEQ ID NO:140, VL SEQ ID NO:139 (antibody, V domains shown, derived from rabbit) VH: QSLEESGGRLVTPGTPLTLTCTVSGFSLSRYWMSWVRQAPGKGLEWIGNIGGGSGSTLYAPWAKGRSTISKTSTTVDLKITSPTTEDTATYFCGRYVKNGGGYRLDLWGPGTLVTVS VL: AAVLTQTPSSVSAAVGGTVTIKCQSSQSVYNNNEFSWYQQKPGQPPKLLIYDASKLASGVPSRFSGSGSGTQFTLTISGVQCDDVATYYCLGGYNDDTNRWAFGGGTEVVVE | – | – | significantly reduced | – | – | – | – | – | – | – | –
